Tested on: O=[N+]([O-])c1ccc(O[C@H]2O[C@H](CO)[C@H](O)[C@H](O)[C@H]2O)cc1
Assay: cells, lysate or membranes
Details: Tris-HCl pH 8, 25 °C, unpurified cell-free expression reaction, final substrate 0.5-50 mM

GH27_OsAPSE (GH27 domain of OsAPSE) (Oryza sativa Japonica Group)
Km: 670 µM

Reference: article PMC12137362, “OsAPSE modulates non-covalent interactions between arabinogalactan protein O-glycans and pectin in rice cell walls” (Frontiers in Plant Science, 2025)
